Source: article PMC11641012

What was measured:
Experiment in all cases: EMSA
Details in all cases: EMSA: 10 mM Tris-HCl, 10 mM NaCl, 40 mM KCl, 1 mM MgCl2, 4 mM EDTA, 1 mM DTT, 0.5 mg/ml BSA, 5% glycerol, 2 pmol DNA in 15 ul, room temperature 15 min (pH not …)
[1] = tested on: IntI1 (IntI1Y312F), MBP fusion
IntI1A = tested on: IntI1A
IntI1deltaC = tested on: IntI1deltaC

Question: “CATTGCGCATTGCGTAGATCTTTTATGTCTAACGCTTGAATTAAGCCGCGCCGCGAAGCGGCGTCGGCTTGAATGAATTGTTAGACATTTTCCATGGCTATATTTCAGCATCATCACATCATCATCATCATCATCACAGGGTAGATCATCATCATCAACACGGGACGACAGCAAATGGCACCCTTCTATAAGCTTTTTATGTCTAACGCTTGAATTAAGCCGCGCCGCGAAGCGGCGTCGGCTTGAATGAATTGTTAGACATTTTCTCGAGGGTATAGCATTCTAG / CCCTGTGATGATGATGATGATGATGTGATGATGCTGAAATATAGCCATGGACGCAGATCTACGCAATGCGCAATG / CTAGAATGCTATACCCTCGAGCGCAAGCTTATAGAAGGGTGCCATTTGCTGTCGTCCCGTGTTGATGATGATGATC [double-attCaadA7bs + staples]” was tested. Which K half [1] did it give?
Answer: The K half was 153 nM.

Question: What about the K half (IntI1A) of the same sequence?
Answer: The K half was 100 nM.

Question: What about the K half (IntI1deltaC) of the same sequence?
Answer: Its K half is 180 nM.

Question: Which K half [1] does the source give for “CATTGCGCATTGCGTAGATCTTTTGAGTAACCGTTTTGAGTCGAACCCAACGATCCGTTGGTGTTCGAGCTCATCTGTGTTACTCTTTCCATGGCTATATTTCAGCATCATCACATCATCATCATCATCATCACAGGGTAGATCATCATCATCAACACGGGACGACAGCAAATGGCACCCTTCTATAAGCTTTTTGAGTAACCGTTTTGAGTCGAACCCAACGATCCGTTGGTGTTCGAGCTCATCTGTGTTACTCTTTCTCGAGGGTATAGCATTCTAG / CCCTGTGATGATGATGATGATGATGTGATGATGCTGAAATATAGCCATGGACGCAGATCTACGCAATGCGCAATG / CTAGAATGCTATACCCTCGAGCGCAAGCTTATAGAAGGGTGCCATTTGCTGTCGTCCCGTGTTGATGATGATGATC [double-attCL2 + staples]” here?
Answer: Its K half is 357 nM.

Question: “CATTGCGCATTGCGTAGATCTTTTGTTATAACTTTCGCCTAAGGGGCTGACAACGCACTACCACTAAACTCAAACACAACAACAGCAACCACCGCGGCTCAATGGGACTGGAAACGCCACGCGTTGACAGTCCCTCTTGAGGCGGCCGTTATAACTTTCCATGGCTATATTTCAGCATCATCACATCATCATCATCATCATCACAGGGTAGATCATCATCATCAACACGGGACGACAGCAAATGGCACCCTTCTATAAGCTTTTTGTTATAACTTTCGCCTAAGGGGCTGACAACGCACTACCACTAAACTCAAACACAACAACAGCAACCACCGCGGCTCAATGGGACTGGAAACGCCACGCGTTGACAGTCCCTCTTGAGGCGGCCGTTATAACTTTCTCGAGGGTATAGCATTCTAG / CCCTGTGATGATGATGATGATGATGTGATGATGCTGAAATATAGCCATGGACGCAGATCTACGCAATGCGCAATG / CTAGAATGCTATACCCTCGAGCGCAAGCTTATAGAAGGGTGCCATTTGCTGTCGTCCCGTGTTGATGATGATGATC [double-attCVCRinv + staples]” was tested. Which K half [1] did it give?
Answer: The K half was 135 nM.

Question: For “CATTGCGCATTGCGTAGATCTTTTATGTCTAACAATTCATTCAAGCCGACGCCGCTTCGCGGCGCGGCTTAATTCAAGCGTTAGACATTTTCCATGGCTATATTTCAGCATCATCACATCATCATCATCATCATCACAGGGTAGATCATCATCATCAACACGGGACGACAGCAAATGGCACCCTTCTATAAGCTTTTTATGTCTAACAATTCATTCAAGCCGACGCCGCTTCGCGGCGCGGCTTAATTCAAGCGTTAGACATTTTCTCGAGGGTATAGCATTCTAG / CCCTGTGATGATGATGATGATGATGTGATGATGCTGAAATATAGCCATGGACGCAGATCTACGCAATGCGCAATG / CTAGAATGCTATACCCTCGAGCGCAAGCTTATAGAAGGGTGCCATTTGCTGTCGTCCCGTGTTGATGATGATGATC [double-attCaadA7ts + staples]”, which binding signal [1] is on record?
Answer: Its binding signal is 7 % bound.

Question: Which K half [1] does the source give for “CATTGCGCATTGCGTAGATCTTTTGTTATAACGCCCGCCTAAGGGGCTGACAACGCACTACCACTAAACTCAAACACAACAACAGCAACCACCGCGGCTCAATGGGACTGGAAACGCCACGCGTTGACAGTCCCTCTTGAGGCGTTTGTTATAACTTTCCATGGCTATATTTCAGCATCATCACATCATCATCATCATCATCACAGGGTAGATCATCATCATCAACACGGGACGACAGCAAATGGCACCCTTCTATAAGCTTTTTGTTATAACGCCCGCCTAAGGGGCTGACAACGCACTACCACTAAACTCAAACACAACAACAGCAACCACCGCGGCTCAATGGGACTGGAAACGCCACGCGTTGACAGTCCCTCTTGAGGCGTTTGTTATAACTTTCTCGAGGGTATAGCATTCTAG / CCCTGTGATGATGATGATGATGATGTGATGATGCTGAAATATAGCCATGGACGCAGATCTACGCAATGCGCAATG / CTAGAATGCTATACCCTCGAGCGCAAGCTTATAGAAGGGTGCCATTTGCTGTCGTCCCGTGTTGATGATGATGATC [double-attCVCR2/1 + staples]” here?
Answer: Its K half is 353 nM.
